Test results from US12091776B2, “Protease activity profiling via programmable phage display of comprehensive proteome-scale peptide libraries” (THE JOHNS HOPKINS UNIVERSITY, priority 2019, dated 2024).

Legend:
Caspase-1 [1] = biological target: T1, Caspase-1 (Homo sapiens, UniProt P29466); assay: SEPARATE assay: 56-amino acid mouse peptidome library digested with Caspase-1; format: biochemical; conditions: selected peptides, mouse library (56-aa tiles)
T1 construct: purchased BioVision
T1 sequence (P29466 120-297 limits assumed): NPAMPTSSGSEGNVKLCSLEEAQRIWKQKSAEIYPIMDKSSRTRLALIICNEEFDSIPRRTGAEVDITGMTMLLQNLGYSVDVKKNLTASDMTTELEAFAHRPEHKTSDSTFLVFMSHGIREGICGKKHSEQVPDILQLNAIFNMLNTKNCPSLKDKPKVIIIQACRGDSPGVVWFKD
T1 sequence (P29466 317-404 limits assumed): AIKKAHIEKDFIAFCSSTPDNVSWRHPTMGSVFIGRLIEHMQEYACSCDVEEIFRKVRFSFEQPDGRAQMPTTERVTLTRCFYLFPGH
Protocol: (§1) Streptavidin-coupled magnetic beads (Dynabeads M-280 Streptavidin, ThermoFisher Scientific) were washed (TBS, pH 7.4, 0.01% NP40) and resuspended in binding buffer (TBS, pH 7.4, 0.001% NP40) containing 2E9 plaque forming units per 10 μl of bead slurry. End-over-end mixing at room temperature was performed for one hour. Phage-coated beads were washed three times with wash buffer and transferred into two protein LoBind Eppendorf tubes blocked with TBS, pH 7.4 containing 1% BSA.
Digestion occurred overnight at room temperature with end-over-end rotation. […] To remove any residual biotinylated phage that may have been nonspecifically released, the 150 μl supernatant of the quenched digest reaction is then incubated with a fresh 10 μl of slurry volume M280 streptavidin beads (pre-washed three times with wash buffer) in a LoBind Eppendorf tube blocked with TBS, pH 7.4 containing 1% BSA at room temperature for one hour with end-over-end rotation.
10 μl slurry volume of protein G magnetic dynabeads were washed in buffer (TBS, pH 7.4, 0.01% NP40) and then resuspended in 50 μl TBS, pH 7.4, 0.01% NP40 containing 4 μg of M2 FLAG antibody for thirty minutes at room temperature with end-over-end rotation. The 150 μl quenched digest reaction is added to the 10 μl FLAG-coated Protein G beads and incubated for 60 minutes at room temperature with end-over-end rotation to capture phage particles released at the protease digest step. Beads are rinsed once with 100 μl wash buffer and stored at −80° C. until PCR amplification.
Library PCR preparation, high-throughput DNA sequencing, and peptide read count data generation was performed as described previously.^44 Briefly, library peptide inserts are amplified by resuspending 10 μl of FLAG-coated Protein G beads in PCR1 master mix containing the T7-Pep2_PCR1_F forward primer ([…]) (SEQ ID NO:3) and a T7-SEPARATE vector specific reverse primer ([…]) (SEQ ID NO:4), which includes an adapter sequence for sample-specific barcoding and Illumina P7 adapter incorporation during a subsequent PCR2 reaction. The PCR2 amplicons are pooled and sequenced using an Illumina NextSeq instrument in standard output mode to obtain single-end 50 nucleotide reads. Dual indexed sample demultiplexing and clonal read count determination were performed using exact sequence matching. […] To calculate the normalization factor, 100 peptides were randomly selected from the mock digest conditions with a read count ranging between 10 and 40. The median read count value for these 100 peptides is calculated for each sample. The random peptide selection and median calculation is performed 20 times and the average of the 20 median values is calculated for each sample. Finally, the normalization factor is calculated by dividing the average median value for each sample by that for one of the mock digest conditions. Read counts are then converted to normalized read counts by dividing each sample's read count values by the normalization factor. Fold enrichments are calculated for each peptide by dividing their normalized read counts in the digest condition by the normalized read counts in the mock digest condition. The fold enrichments can be visualized in an MA plot by transforming the normalized read count data into a log ratio (M, on the y-axis) and a mean average (A, on the x-axis) between the digest and mock digest conditions.
The performance of the SEPARATE assay is expected to depend on protease-substrate requirements as well as biophysical features of the peptide library. The present inventors have verified by PCR and Sanger sequencing that 90% of the immobilized human library lacks in-frame mutations. […] To explore this further, a 56-amino acid mouse peptidome library (unpublished) was used in which both IL-1β and Gasdermin-D cleavage peptides are better represented. […] Mouse IL-1β and Gasdermin-D are highly similar to the human versions and can serve as substrates for human Caspase-1. […]

Thrombin = biological target: T2, Thrombin (Homo sapiens, UniProt P00734); assay: SEPARATE assay: human peptidome library digest with Thrombin; format: biochemical; conditions: human library, Thrombin
T2 construct: Thrombin (a serine protease); purchased SignalChem
Protocol: The PCR2 amplicons are pooled and sequenced using an Illumina NextSeq instrument in standard output mode to obtain single-end 50 nucleotide reads. Dual indexed sample demultiplexing and clonal read count determination were performed using exact sequence matching. […] To calculate the normalization factor, 100 peptides were randomly selected from the mock digest conditions with a read count ranging between 10 and 40. The median read count value for these 100 peptides is calculated for each sample. The random peptide selection and median calculation is performed 20 times and the average of the 20 median values is calculated for each sample. Finally, the normalization factor is calculated by dividing the average median value for each sample by that for one of the mock digest conditions. […]

Caspase-1 [2] = biological target: T1, Caspase-1; assay: HUWE1 cleavage assay using recombinant Caspase-1 in THP-1 lysate (Western blot); format: biochemical; conditions: recombinant Caspase-1 added to unstimulated THP-1 cell lysates; time-dependent
Protocol: Recombinant Caspase-1 (rCaspase-1) was diluted to 0.1 U/μl in 1× mammalian cell extraction buffer containing 2 μM Dithiothreitol (DTT). This buffer preserves enzymatic activity of proteases. Unstimulated, PMA differentiated THP-1 cells were also lysed in 1× mammalian cell extraction buffer with 200 μl of buffer to lyse one well of a 6-well plate (˜1×10^6 cells). Protease digests were set up with 50 μl of lysate (˜250,000 cells).
30 μl of protein lysates were mixed with 10 μl of 4× NuPage LDS sample loading buffer (Thermo Fisher, Cat. No. NP0007, final concentration to 1×). 4-12% NuPage Bis-Tris gels (Thermo Fisher, Cat. No. NP0321) were loaded with 35 μl of each sample along with high molecular weight standards (HiMark protein ladder, Thermo Fisher, Cat. No. LC5699) and resolved in 1× NuPAGE™ MES SDS Running Buffer (Thermo Fisher, Cat. No. NP0002) at 150V for 50-60 minutes. After suitable resolution of proteins, the gels were transferred to a PVDF membrane by the ‘wet transfer’ method using 1× NuPage transfer buffer (Thermo Fisher, Cat. No. NP00061) overnight at 4° C., 50 mA constant current. After transfer is complete, the membranes were washed in 1× tris buffered saline containing 0.01% Tween-20 (TBS-T), blocked for 30 minutes with 5% milk in TBS-T and probed with primary antibodies and HRP conjugated secondary antibodies with TBS-T washing in between. […]

Caspase-1 [3] = biological target: T1, Caspase-1; assay: SEPARATE assay: human peptidome library digest with Caspase-1; format: biochemical; conditions: unstimulated THP-1 cell lysate supplemented with 0.1 units of recombinant Caspase-1
Protocol: as §1
Digestion occurred overnight at room temperature with end-over-end rotation. […]
Library PCR preparation, high-throughput DNA sequencing, and peptide read count data generation was performed as described previously.^44 Briefly, library peptide inserts are amplified by resuspending 10 μl of FLAG-coated Protein G beads in PCR1 master mix containing the T7-Pep2_PCR1_F forward primer ([…]) (SEQ ID NO:3) and a T7-SEPARATE vector specific reverse primer ([…]) (SEQ ID NO:4), which includes an adapter sequence for sample-specific barcoding and Illumina P7 adapter incorporation during a subsequent PCR2 reaction. The PCR2 amplicons are pooled and sequenced using an Illumina NextSeq instrument in standard output mode to obtain single-end 50 nucleotide reads. Dual indexed sample demultiplexing and clonal read count determination were performed using exact sequence matching. […]

endogenous Caspase-1 = biological target: T3, endogenous Caspase-1 (Homo sapiens, UniProt P29466); assay: In vitro stimulation of the inflammasome in THP-1 cells (Western blot); format: cell-based; conditions: PMA differentiated THP-1 cells, LPS and Nigericin
T3 construct: endogenous in cells; host or cells: PMA-differentiated THP-1 cells
T3 sequence (P29466 120-404): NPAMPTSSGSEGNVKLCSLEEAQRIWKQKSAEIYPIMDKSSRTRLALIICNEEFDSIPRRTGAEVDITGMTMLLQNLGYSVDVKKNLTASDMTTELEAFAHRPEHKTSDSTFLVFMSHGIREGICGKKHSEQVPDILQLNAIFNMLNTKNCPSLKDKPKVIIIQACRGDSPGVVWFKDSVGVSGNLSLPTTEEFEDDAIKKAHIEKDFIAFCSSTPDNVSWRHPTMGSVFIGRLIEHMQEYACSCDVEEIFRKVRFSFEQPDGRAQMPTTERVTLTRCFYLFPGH
Protocol: THP-1 cells were cultured in RPMI-1640 media with Glutamax (Gibco, ThermoFisher, Cat #61870127), supplemented with 10% FBS (Hyclone SH30071, GE Life Sciences), and 1× Antibiotic-Antimycotic (Gibco, ThermoFisher, Cat #15240062), referred to as complete RPMI. To differentiate THP-1 cells into macrophages, 1×10^6 THP-1 cells were added per well of a 6-well plate in complete RPMI medium containing 50 ng/ml Phorbol 12-myristate 13-acetate (PMA, diluted in RPMI medium from a 1 mg/ml PMA stock in DMSO, Millipore Sigma, Cat. No. P1585). After 48 hours when the cells become adherent, the medium with PMA was removed, cells washed in 1×PBS once, and fresh complete RPMI was added. Cells were allowed to rest for an additional 24 hours before inflammasome activation with LPS and Nigericin.
A 6-well plate of PMA differentiated THP-1 cells were treated with 0, 1 or 0.1 μg/ml LPS (Millipore Sigma, Cat. No. LPS25) for 3.5 hours. After 3.5 hours, cells were treated with 2.5 μM Nigericin for an additional 30 minutes to activate the inflammasome. Cells were washed in 1×PBS and lysed in 1× mammalian cell extraction buffer (BioVision, Cat. No. K269) containing 2 μM Dithiothreitol (DTT). Nuclei were spun down by centrifugation (10,000 rpm, 5 minutes, 4° C.) and the cleared supernatant was used to perform Western blots. […]

Substance | Caspase1 fold change (Caspase-1 [1]) [fold] | further results
IL1B 0-56: 56-amino acid mouse peptidome library peptide of IL-1β (MATVPELNCEMPPFDSDENDLFFEVDGPQKMKGCFQTFDLGCPDESIQLQISQQHI; UniProt P10749 1-56, looked up, fragment) | 8.10 | –
HUWE1 2328-2384: 56-amino acid mouse peptidome library peptide of HUWE1 (VVIAGQPEVLSSQEMQVENELEDLIDELLERDGGSGNSTIIVSRSGEDESQEDVLMD; UniProt Q7TMY8 2328-2384, looked up, fragment) | 23.12 | –
IL1B 75-131: 56-amino acid mouse peptidome library peptide of IL-1β (QLPVSFPWTFQDEDMSTFFSFIFEEEPILCDSWDDDDNLLVCDVPIRQLHYRLRDEQ; UniProt P10749 75-131, looked up, fragment) | 8.80 | –
Fibrinogen | – | scoring in the SEPARATE assay (Thrombin): did not score
HECT, UBA and WWE Domain Containing E3 Ubiquitin Protein Ligase 1 [HUWE1] | – | cleavage of endogenous HUWE1 (Western blot) (Caspase-1 [2]): robust cleavage; enrichment in SEPARATE on a complex biological mixture (Caspase-1 [3]): among the most significantly enriched targets; cleavage by endogenous Caspase-1 upon inflammasome activation (Western blot) (endogenous Caspase-1): cleavage
GSDMD 259-315: 56-amino acid mouse peptidome library peptide of Gasdermin-D (NVLAALCSIGKQLSLLSDGIDEEELIEAADFQGLYAEVKACSSELESLEMELRQQIL; UniProt Q9D8T2 259-315, looked up, fragment) | 6.78 | –
HUWE1 2291-2347: 56-amino acid mouse peptidome library peptide of HUWE1 (QDPGEPGEAEVQEEDHDVTQTEVADGDIMDGEAETDSVVIAGQPEVLSSQEMQVENE; UniProt Q7TMY8 2291-2347, looked up, fragment) | 6.13 | –
IL1B 74-130: 56-amino acid mouse peptidome library peptide of IL-1β (WQLPVSFPWTFQDEDMSTFFSFIFEEEPILCDSWDDDDNLLVCDVPIRQLHYRLRDE; UniProt P10749 74-130, looked up, fragment) | 13.23 | –
GSDMD 222-278: 56-amino acid mouse peptidome library peptide of Gasdermin-D (LLIGSKWDILLVSDEKQRTFEPSSGDRKAVGQRHHGLNVLAALCSIGKQLSLLSDGI; UniProt Q9D8T2 222-278, looked up, fragment) | 4.23 | –
